From the supplement of paper PMC12764529
± gives the half width of the 95% confidence interval.

How the values were obtained:
[1] = folding stability dG unfold (combined trypsin and chymotrypsin); higher = more stable
Outline: (§1)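 Digests were run with trypsin and chymotrypsin at 11 concentrations in threefold dilutions, plus a no-protease condition, on designed mini-proteins in a PA-tagged cDNA display construct. The mini-proteins were under 80 residues, had no cysteine, and were kept only when AlphaFold2 dimer inter-PAE was above 15. After sequencing, Bayesian fitting of the counts gave K50, from which unfolding free energy was derived against a sequence-predicted unfolded-state K50 and a shared folded-state K50, per protease or combined.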

[2] = folding stability dG unfold from trypsin proteolysis; higher = more stable
Outline: as §1

[3] = folding stability dG unfold from chymotrypsin proteolysis; higher = more stable
Outline: as §1

Sequence | folding stability dG unfold [1] | folding stability dG unfold [2] | folding stability dG unfold [3]
SAGGSAGGGMNATPKKIKVTITITDPSGNKTTVTREFDSEEEAEKFVKELLPPNRSYTVTYEPESAGGSAGG [r6_290_JUSTAS] | 2.56 ± 0.068 kcal/mol | 2.94 ± 0.074 kcal/mol | 2.075 ± 0.017 kcal/mol
SAGMTIILVGPNAKEAVEKVAEELRKRDVGPPVTVLVLEPGGKPVLRARVERRPPDPDRFVVTVEPVESAGG [r19_85_TrMRF] | 1.27 ± 0.098 kcal/mol | 0.689 ± 0.079 kcal/mol | 1.41 ± 0.11 kcal/mol
SAGGSAGGSAGGMPIPVTITVSDPATGTTKVVKTVLVTSPEKLEEVISKLPEGKKYTVVESAGGSAGGSAGG [r7_307_JUSTAS] | -0.393 ± 0.29 kcal/mol | -0.415 ± 0.098 kcal/mol | -0.224 ± 0.22 kcal/mol
SAGGGPEEIRRAAEALAAELAAELGLEVVEVEVEVREDGTVTVRITVRLPDGSKLEITLTLPAGAPLSAGGS [r8_175_TrROS_Hall] | 1.65 ± 0.073 kcal/mol | 2.03 ± 0.05 kcal/mol | 1.15 ± 0.038 kcal/mol
SEMTAEELAARLAERLAEEHPGEEVTVEIEVEAEVVDEETGETRTVRVTVTLRFRDGKVEVVDVKVEELPSA [r9_361_TrROS_Hall] | 4.18 ± 0.086 kcal/mol | 3.43 ± 0.092 kcal/mol | 4.49 ± 0.066 kcal/mol
SAGGSAGGSVEKLKKALEKLGIKVENVKIEVKTNKNGKKTVTIYVNGKKLSKEEIKKALKEIKSAGGSAGGS [r12_175_TrROS_Hall] | 4.24 ± 0.44 kcal/mol | 2.99 ± 0.23 kcal/mol | 4.46 ± 0.33 kcal/mol
SAGDFLKNLPPGIKRWRPVASDPDGHFVFVFKYKTPDRPRYMVIQFPPNGRIQDIHIFPPDEADKAVNKSAG [r5_73_TrROS] | 1.52 ± 0.25 kcal/mol | 0.72 ± 0.073 kcal/mol | 2.04 ± 0.23 kcal/mol
NIRITDIEMYPFPNNNQPQMEFTLEWPNGPRRTVEFELPGQEMEVYVDPKKGEIWFYFPNNGMFMKITIEPS [r1_125_TrROS] | 2.63 ± 0.35 kcal/mol | 1.37 ± 0.068 kcal/mol | 2.97 ± 0.1 kcal/mol
STLEQILDAIESMPPGWVFRIKIHHPNGEPHEHRFNMTYDDIKAQLENMIDHHPGQPIKIKIEFMPPEDFSA [r9_37_TrROS] | 3.38 ± 0.064 kcal/mol | 2.97 ± 0.11 kcal/mol | 3.72 ± 0.077 kcal/mol
SAGGGSISISLPAEELKALSPEDVIEVTAPDGTKIKAKPVKKGDTYPVTAEDPNNPKNATEMGTATLPSAGG [r13_745_JUSTAS] | 0.176 ± 0.19 kcal/mol | 0.0233 ± 0.084 kcal/mol | 0.4 ± 0.095 kcal/mol
SAGGGGSTPVSSYSYPLPDGSTATITISSKNPDSDIYSFTVTLSDGTTVPLDVPLSESVEEAIARVLTSAGG [r13_470_JUSTAS] | 2.27 ± 0.092 kcal/mol | 2.31 ± 0.086 kcal/mol | 2.19 ± 0.076 kcal/mol
SMTTTTLPDGTTVTTLSDGTVKTVTHYPDSVVTETSPITYKLPDGREFTTKEEAEAYEKETGIPVSPALASA [r9_660_JUSTAS] | 0.4 ± 0.16 kcal/mol | 0.62 ± 0.036 kcal/mol | 0.255 ± 0.23 kcal/mol
SAGGSAGGSMTITVTKVDFPPGLYEGLTIEELRKLLGDENLPIKETPVTVTVTPEKLAALLLSSAGGSAGGS [r12_178_JUSTAS] | 1.36 ± 0.096 kcal/mol | 1.69 ± 0.036 kcal/mol | 0.778 ± 0.08 kcal/mol
SAGGKVKVVEIRYFPGTNTVEILVEDPGPYLATIRIPAAPDAPIEIDEDANFRVPDAPVVLGEVRPPSAGGS [r16_515_TrMRF] | 1.09 ± 0.072 kcal/mol | 1.19 ± 0.027 kcal/mol | 0.843 ± 0.12 kcal/mol
PDNEPPQWYRVWIPIDPEDGKIEVKPGGSTMTIDLPDGRPIEFYVPQGMSPSDIKNWAKGIAKELAEELKNS [r1_25_TrROS] | 1.52 ± 0.2 kcal/mol | 1.54 ± 0.076 kcal/mol | 1.58 ± 0.18 kcal/mol
SAGGSAGGSAGGMINIEGSSFEIVQPDGKPIGSESTGSAEELAKKLPSSYSVLPKGVPPSAGGSAGGSAGGS [r10_310_JUSTAS] | 2.25 ± 0.27 kcal/mol | 1.67 ± 0.21 kcal/mol | 2.72 ± 0.11 kcal/mol
SAGGSAGGSAGGPEVTLRLRLEVEVRVVVLKDGKLEEKTFRFELEVEVRFEPGMSLEELSAGGSAGGSAGGS [r10_633_TrROS_Hall] | 3.91 ± 0.075 kcal/mol | 3.23 ± 0.15 kcal/mol | 4.09 ± 0.086 kcal/mol
SAGGMYILELTFTTPTSTTPRTVEVPPGNYEEAAKALREELAAEAGAADLEVTFTVYKVAPDGTLVEESAGG [r13_877_JUSTAS] | 2 ± 0.19 kcal/mol | 1.16 ± 0.049 kcal/mol | 2.51 ± 0.097 kcal/mol
SAGGSAGGSAGGNWVMIEFNFPPGKKLKIEIPNGRDIQRHRDPDNGTLWFMIPPEAAEDFSAGGSAGGSAGG [r7_155_TrROS] | 0.636 ± 0.27 kcal/mol | 0.649 ± 0.11 kcal/mol | 0.509 ± 0.26 kcal/mol
SAGGSAGGDTLTIVVEGMSAEELAALLKELFPDAEVTVTEVGEPRLVTVTVTVKVETEFELPEESAGGSAGG [r6_607_TrROS_Hall] | 2.28 ± 0.1 kcal/mol | 2.13 ± 0.099 kcal/mol | 2.36 ± 0.087 kcal/mol
SAGGSAGGSAGTETKVLFIDENFESVEEAFQALRDLLPDNYKIEPLGVFPAKNKVVVLVTNPSAGGSAGGSA [r18_429_TrMRF] | 0.589 ± 0.15 kcal/mol | 0.646 ± 0.056 kcal/mol | 0.189 ± 0.27 kcal/mol
